Biological target: Mcl-1 (myeloid cell leukemia-1), recombinant protein (UniProt Q07820)
Assay: SPR

## Noxa BH3 peptide
  IC50: 62 nM

— paper PMC4174574
